Results taken from PMC7954794 (2021).

B1: S. cerevisiae Abp1 (full length; SH3 domain 535-592 mutated) / Hua2 (parent complex)
chain 1: MALEPIDYTTHSREIDAEYLKIVRGSDPDTTWLIISPNAKKEYEPESTGSSFHDFLQLFDETKVQYGLARVSPPGSDVEKIIIIGWCPDSAPLKTRASFAANFAAVANNLFKGYHVQVTARDEDDLDENELLMKISNAAGARYSIQTSSKQQGKASTPPVKKSFTPSKSPAPVSKKEPVKTPSPAPAAKISSRVNDNNDDDDWNEPELKERDFDQAPLKPNQSSYKPIGKIDLQKVIAEEKAKEDPRLVQKPTAAGSKIDPSSDIANLKNESKLKRDSEFNSFLGTTKPPSMTESSLKNDDDKVIKGFRNEKSPAQLWAERKAKQNSGNAETKAEAPKPEVPEDEPEGEPDVKDLKSKFEGLAASEKEEEEMENKFAPPPKKSEPTIISPKPFSKPQEPVKAEEAEQPKTDYKKIGNPLPGMHIEADNEEEPEENDDDWDDDEDEAAQPPLPSRNVASGAPVQKEEPEQEEIAPSLPSRNSIPAPKQEEAPEQAPEEEIEEEAEEAAPQLPSRSSAAPPPPPRRATPEKKPKENPWATAEYDYDAAEDNELTFVENDKIINIEFVDDDWWLGELEKDGSKGLFPSNYVSLGN
chain 2: MQQTKFGKMYLDHDSVVEYSEDEIVEADRITLGYKKRLSMIENQMRHLLEDFSLDVQQIEPILADLQKYYDAFLQLLQKRNKSLQCKRSTHQPVPSPMNSQTSTNAKVNLSGKLMKFQLNSVQKFDEENILRILQNKIEFEHYFQIDKGKKQKVLLLAVYQCLNGPTRLHKVLNIEGIIHNNSIRTILGKQVSSSKWTVFLYDVKLVLLAHRQDVPNLETSKMIVRYGDLFPCALYFKDHTAY

Variants of: B1
Assay: DHFR protein-fragment complementation in yeast (Abp1-DHFR F[1,2] x partner-DHFR F[3]), deep mutational scanning, second methotrexate selection vs reference; S. cerevisiae, DHFR-PCA selection in liquid with methotrexate at 30 C, two 72 h selections (the score uses the second); reference = the pre-selection culture

screen value | Variant
0.89 DMS score: mean over two replicates of log2(f_test/f_ref + 0.5)/ln 2, minus the synonymous-codon median (not a log2 … | chain 1 MALEPIDYTTHSREIDAEYLKIVRGSDPDTTWLIISPNAKKEYEPESTGSSFHDFLQLFDETKVQYGLARVSPPGSDVEKIIIIGWCPDSAPLKTRASFAANFAAVANNLFKGYHVQVTARDEDDLDENELLMKISNAAGARYSIQTSSKQQGKASTPPVKKSFTPSKSPAPVSKKEPVKTPSPAPAAKISSRVNDNNDDDDWNEPELKERDFDQAPLKPNQSSYKPIGKIDLQKVIAEEKAKEDPRLVQKPTAAGSKIDPSSDIANLKNESKLKRDSEFNSFLGTTKPPSMTESSLKNDDDKVIKGFRNEKSPAQLWAERKAKQNSGNAETKAEAPKPEVPEDEPEGEPDVKDLKSKFEGLAASEKEEEEMENKFAPPPKKSEPTIISPKPFSKPQEPVKAEEAEQPKTDYKKIGNPLPGMHIEADNEEEPEENDDDWDDDEDEAAQPPLPSRNVASGAPVQKEEPEQEEIAPSLPSRNSIPAPKQEEAPEQAPEEEIEEEAEEAAPQLPSRSSAAPPPPPRRATPEKKPKENPWATAEYDYDAAEDNELTFYENDKIINIEFVDDDWWLGELEKDGSKGLFPSNYVSLGN [chain 1 V554Y]
0.925 DMS score: mean over two replicates of log2(f_test/f_ref + 0.5)/ln 2, minus the synonymous-codon median (not a log2 … | chain 1 MALEPIDYTTHSREIDAEYLKIVRGSDPDTTWLIISPNAKKEYEPESTGSSFHDFLQLFDETKVQYGLARVSPPGSDVEKIIIIGWCPDSAPLKTRASFAANFAAVANNLFKGYHVQVTARDEDDLDENELLMKISNAAGARYSIQTSSKQQGKASTPPVKKSFTPSKSPAPVSKKEPVKTPSPAPAAKISSRVNDNNDDDDWNEPELKERDFDQAPLKPNQSSYKPIGKIDLQKVIAEEKAKEDPRLVQKPTAAGSKIDPSSDIANLKNESKLKRDSEFNSFLGTTKPPSMTESSLKNDDDKVIKGFRNEKSPAQLWAERKAKQNSGNAETKAEAPKPEVPEDEPEGEPDVKDLKSKFEGLAASEKEEEEMENKFAPPPKKSEPTIISPKPFSKPQEPVKAEEAEQPKTDYKKIGNPLPGMHIEADNEEEPEENDDDWDDDEDEAAQPPLPSRNVASGAPVQKEEPEQEEIAPSLPSRNSIPAPKQEEAPEQAPEEEIEEEAEEAAPQLPSRSSAAPPPPPRRATPEKKPKENPWATAEYDYDAAEDNELTFRENDKIINIEFVDDDWWLGELEKDGSKGLFPSNYVSLGN [chain 1 V554R]

Continued, variant first:

Variant | screen value
chain 1 MALEPIDYTTHSREIDAEYLKIVRGSDPDTTWLIISPNAKKEYEPESTGSSFHDFLQLFDETKVQYGLARVSPPGSDVEKIIIIGWCPDSAPLKTRASFAANFAAVANNLFKGYHVQVTARDEDDLDENELLMKISNAAGARYSIQTSSKQQGKASTPPVKKSFTPSKSPAPVSKKEPVKTPSPAPAAKISSRVNDNNDDDDWNEPELKERDFDQAPLKPNQSSYKPIGKIDLQKVIAEEKAKEDPRLVQKPTAAGSKIDPSSDIANLKNESKLKRDSEFNSFLGTTKPPSMTESSLKNDDDKVIKGFRNEKSPAQLWAERKAKQNSGNAETKAEAPKPEVPEDEPEGEPDVKDLKSKFEGLAASEKEEEEMENKFAPPPKKSEPTIISPKPFSKPQEPVKAEEAEQPKTDYKKIGNPLPGMHIEADNEEEPEENDDDWDDDEDEAAQPPLPSRNVASGAPVQKEEPEQEEIAPSLPSRNSIPAPKQEEAPEQAPEEEIEEEAEEAAPQLPSRSSAAPPPPPRRATPEKKPKENPWATAEYDYDAAEDNELTFVECDKIINIEFVDDDWWLGELEKDGSKGLFPSNYVSLGN [chain 1 N556C] | 0.444 DMS score: mean over two replicates of log2(f_test/f_ref + 0.5)/ln 2, minus the synonymous-codon median (not a log2 …
chain 1 MALEPIDYTTHSREIDAEYLKIVRGSDPDTTWLIISPNAKKEYEPESTGSSFHDFLQLFDETKVQYGLARVSPPGSDVEKIIIIGWCPDSAPLKTRASFAANFAAVANNLFKGYHVQVTARDEDDLDENELLMKISNAAGARYSIQTSSKQQGKASTPPVKKSFTPSKSPAPVSKKEPVKTPSPAPAAKISSRVNDNNDDDDWNEPELKERDFDQAPLKPNQSSYKPIGKIDLQKVIAEEKAKEDPRLVQKPTAAGSKIDPSSDIANLKNESKLKRDSEFNSFLGTTKPPSMTESSLKNDDDKVIKGFRNEKSPAQLWAERKAKQNSGNAETKAEAPKPEVPEDEPEGEPDVKDLKSKFEGLAASEKEEEEMENKFAPPPKKSEPTIISPKPFSKPQEPVKAEEAEQPKTDYKKIGNPLPGMHIEADNEEEPEENDDDWDDDEDEAAQPPLPSRNVASGAPVQKEEPEQEEIAPSLPSRNSIPAPKQEEAPEQAPEEEIEEEAEEAAPQLPSRSSAAPPPPPRRATPEKKPKENPWATAEYDYDAAEDNELTFVEGDKIINIEFVDDDWWLGELEKDGSKGLFPSNYVSLGN [chain 1 N556G] | 0.625 DMS score: mean over two replicates of log2(f_test/f_ref + 0.5)/ln 2, minus the synonymous-codon median (not a log2 …
chain 1 MALEPIDYTTHSREIDAEYLKIVRGSDPDTTWLIISPNAKKEYEPESTGSSFHDFLQLFDETKVQYGLARVSPPGSDVEKIIIIGWCPDSAPLKTRASFAANFAAVANNLFKGYHVQVTARDEDDLDENELLMKISNAAGARYSIQTSSKQQGKASTPPVKKSFTPSKSPAPVSKKEPVKTPSPAPAAKISSRVNDNNDDDDWNEPELKERDFDQAPLKPNQSSYKPIGKIDLQKVIAEEKAKEDPRLVQKPTAAGSKIDPSSDIANLKNESKLKRDSEFNSFLGTTKPPSMTESSLKNDDDKVIKGFRNEKSPAQLWAERKAKQNSGNAETKAEAPKPEVPEDEPEGEPDVKDLKSKFEGLAASEKEEEEMENKFAPPPKKSEPTIISPKPFSKPQEPVKAEEAEQPKTDYKKIGNPLPGMHIEADNEEEPEENDDDWDDDEDEAAQPPLPSRNVASGAPVQKEEPEQEEIAPSLPSRNSIPAPKQEEAPEQAPEEEIEEEAEEAAPQLPSRSSAAPPPPPRRATPEKKPKENPWATAEYDYDAAEDNELTFVENDTIINIEFVDDDWWLGELEKDGSKGLFPSNYVSLGN [chain 1 K558T] | 0.186 DMS score: mean over two replicates of log2(f_test/f_ref + 0.5)/ln 2, minus the synonymous-codon median (not a log2 …
